Results as given in the supplement of paper PMC10065799, “High-throughput profiling of sequence recognition by tyrosine kinases and SH2 domains using bacterial peptide display” (eLife, 2023).

target: EPHB1 (UniProt P54762); assay: phosphorylation enrichment, bacterial display (enrichment ratio); higher = better substrate or ligand; peptides without Tyr show the background
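Note: 11-residue human phosphosite peptides and single-mutation variants displayed on the E. coli surface, counted by deep sequencing, each peptide's frequency after selection divided by its frequency in the unselected input library; frequency after pTyr selection over input frequency; kinase dosed for 20-30% of maximal phosphorylation in three min.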

Sequence of EPHB1 (P54762 whole entry, looked up): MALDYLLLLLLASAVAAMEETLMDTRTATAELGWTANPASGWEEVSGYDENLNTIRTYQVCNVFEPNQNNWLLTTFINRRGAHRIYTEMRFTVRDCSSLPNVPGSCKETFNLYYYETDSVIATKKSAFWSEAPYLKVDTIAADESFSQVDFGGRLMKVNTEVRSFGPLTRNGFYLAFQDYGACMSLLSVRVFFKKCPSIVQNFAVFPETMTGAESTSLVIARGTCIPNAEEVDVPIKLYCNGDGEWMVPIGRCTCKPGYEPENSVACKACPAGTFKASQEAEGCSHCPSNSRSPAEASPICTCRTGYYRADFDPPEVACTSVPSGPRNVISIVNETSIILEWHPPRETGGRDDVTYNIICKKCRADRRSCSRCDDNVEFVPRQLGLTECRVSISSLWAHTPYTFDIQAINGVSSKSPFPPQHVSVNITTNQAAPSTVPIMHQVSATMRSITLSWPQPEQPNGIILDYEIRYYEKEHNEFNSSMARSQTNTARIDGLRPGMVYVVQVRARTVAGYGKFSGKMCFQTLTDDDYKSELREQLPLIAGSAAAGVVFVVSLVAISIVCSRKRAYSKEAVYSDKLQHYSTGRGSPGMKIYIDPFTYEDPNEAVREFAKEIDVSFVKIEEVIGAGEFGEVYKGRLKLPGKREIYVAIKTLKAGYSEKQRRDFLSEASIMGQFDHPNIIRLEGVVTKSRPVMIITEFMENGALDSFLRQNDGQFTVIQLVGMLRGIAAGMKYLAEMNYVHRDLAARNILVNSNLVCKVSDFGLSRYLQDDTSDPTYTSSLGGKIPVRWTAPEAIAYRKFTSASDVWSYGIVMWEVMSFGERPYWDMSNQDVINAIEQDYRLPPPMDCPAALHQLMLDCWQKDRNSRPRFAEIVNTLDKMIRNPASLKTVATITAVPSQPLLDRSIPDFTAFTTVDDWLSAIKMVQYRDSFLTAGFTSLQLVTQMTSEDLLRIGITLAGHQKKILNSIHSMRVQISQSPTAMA

| Sequence | phosphorylation enrichment |
| --- | --- |
| ELANLYHHVCM [BICD2_Y538] | 0.666 |
| GVRFTYTIDGS [DCX_Y105_I104T_YF] | 0.458 |
| EQLRAYLEGTC [HLA-C_Y183] | 0.467 |
| SLMNQYVNKEF [RAB7A_Y28_K32E] | 0.392 |
| KGSEGYLAAIF [NF1_Y2503_T2507I_YF] | 0.54 |
| DLSEVYKPRRK [CCDC93_Y176] | 0.513 |
| GIYKDYYRYNF [PLA2G2D_Y85_S80G] | 5.44 |
| KDFETYQSFQN [CTNND2_Y1157_P1159S_YF] | 2 |
| RRNEEYCLLAS [ITK_Y198_D202A] | 1.55 |
| PVGVLYKVKVY [PTS_Y128] | 1.06 |
| KGEDFYCVTFH [FHL1_Y149_C153Y_YF] | 0.825 |
| RRIHSYRGRLW [VHL_Y112_H115R] | 0.865 |
| FGLQAYTEVKT [ALDH2_Y502_YF] | 0.715 |
| PELINYHQHFS [BTK_Y361_N365Y_YF] | 0.723 |
| LREKVYVSLEA [RXRA_Y397_A398V] | 0.456 |
| ADKSVYLMGLN [MYH7_Y386_A385V] | 0.407 |
| SLNEVYTKNKT [MSH2_Y563_E562V] | 0.375 |

| Sequence | phosphorylation enrichment |
| --- | --- |
| DGTESYHTVSS [PLK1_Y462_L463H] | 0.342 |
| PTTKTYFPHFF [HBA1_Y43_D48Y_YF] | 0.547 |
| LKALHYMVQTS [SACS_Y3367] | 0.546 |
| TIQIMYGCDVG [HLA-A_Y123] | 0.647 |
| GKSFIYAAFHA [KCNT1_Y563_T562I] | 0.787 |
| GSSSSCGQHGS [HRNR_Y517_Y517C] | 0.342 |
| RRIHSYRGQLW [VHL_Y112_H115Q] | 0.491 |
| KSVVTYSPTTG [ITGB3BP_Y32_I30V] | 0.427 |
| KILGRYFETSS [PAX2_Y72_G76S_YF] | 0.424 |
| DTDSSYCIPIA [GAB1_Y373_T377I] | 0.829 |
| CKRQFYLFKGK [RSPO4_Y112_YF] | 0.385 |
| ESDYTYSSSYE [SRPK2_Y427] | 1.3 |
| DRQASYLDKVR [KRT16_Y131_L128Q] | 0.39 |
| CGPLLYGLVHQ [PRKCG_Y122_S119P] | 2.72 |
| PNQRRYVFFFS [PTEN_Y174_S170N_YF] | 0.61 |
| GHEFIYVDRMQ [PDGFRB_Y581_P584R_YF] | 0.47 |

target: Hck (UniProt P08631); assay: as above
Sequence (P08631 whole entry, looked up): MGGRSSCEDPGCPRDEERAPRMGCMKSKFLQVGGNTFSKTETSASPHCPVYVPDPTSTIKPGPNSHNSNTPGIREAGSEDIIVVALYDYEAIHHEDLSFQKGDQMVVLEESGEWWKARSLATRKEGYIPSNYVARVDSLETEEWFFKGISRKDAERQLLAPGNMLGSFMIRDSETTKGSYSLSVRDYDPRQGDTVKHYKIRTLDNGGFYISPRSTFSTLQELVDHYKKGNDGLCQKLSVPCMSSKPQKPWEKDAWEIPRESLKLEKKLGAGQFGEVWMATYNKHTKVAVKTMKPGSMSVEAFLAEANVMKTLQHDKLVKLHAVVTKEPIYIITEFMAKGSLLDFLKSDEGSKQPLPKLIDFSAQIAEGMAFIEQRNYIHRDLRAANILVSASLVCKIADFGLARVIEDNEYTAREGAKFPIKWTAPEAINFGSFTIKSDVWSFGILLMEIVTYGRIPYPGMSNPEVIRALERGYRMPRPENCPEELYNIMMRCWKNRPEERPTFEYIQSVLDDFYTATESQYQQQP

| Sequence | phosphorylation enrichment |
| --- | --- |
| ELANLYHHVCM [BICD2_Y538] | 2.17 |
| GVRFTYTIDGS [DCX_Y105_I104T_YF] | 0.496 |
| EQLRAYLEGTC [HLA-C_Y183] | 0.55 |
| SLMNQYVNKEF [RAB7A_Y28_K32E] | 0.469 |
| KGSEGYLAAIF [NF1_Y2503_T2507I_YF] | 0.398 |
| DLSEVYKPRRK [CCDC93_Y176] | 0.407 |
| GIYKDYYRYNF [PLA2G2D_Y85_S80G] | 3.32 |
| KDFETYQSFQN [CTNND2_Y1157_P1159S_YF] | 5.29 |
| RRNEEYCLLAS [ITK_Y198_D202A] | 0.84 |
| PVGVLYKVKVY [PTS_Y128] | 0.687 |
| KGEDFYCVTFH [FHL1_Y149_C153Y_YF] | 1.19 |
| RRIHSYRGRLW [VHL_Y112_H115R] | 0.754 |
| FGLQAYTEVKT [ALDH2_Y502_YF] | 0.657 |
| PELINYHQHFS [BTK_Y361_N365Y_YF] | 0.513 |
| LREKVYVSLEA [RXRA_Y397_A398V] | 0.61 |
| ADKSVYLMGLN [MYH7_Y386_A385V] | 0.481 |
| SLNEVYTKNKT [MSH2_Y563_E562V] | 0.38 |

| Sequence | phosphorylation enrichment |
| --- | --- |
| DGTESYHTVSS [PLK1_Y462_L463H] | 0.436 |
| PTTKTYFPHFF [HBA1_Y43_D48Y_YF] | 0.672 |
| LKALHYMVQTS [SACS_Y3367] | 0.43 |
| TIQIMYGCDVG [HLA-A_Y123] | 0.581 |
| GKSFIYAAFHA [KCNT1_Y563_T562I] | 2.83 |
| GSSSSCGQHGS [HRNR_Y517_Y517C] | 0.333 |
| RRIHSYRGQLW [VHL_Y112_H115Q] | 0.664 |
| KSVVTYSPTTG [ITGB3BP_Y32_I30V] | 0.372 |
| KILGRYFETSS [PAX2_Y72_G76S_YF] | 0.508 |
| DTDSSYCIPIA [GAB1_Y373_T377I] | 0.413 |
| CKRQFYLFKGK [RSPO4_Y112_YF] | 0.4 |
| ESDYTYSSSYE [SRPK2_Y427] | 0.86 |
| DRQASYLDKVR [KRT16_Y131_L128Q] | 0.399 |
| CGPLLYGLVHQ [PRKCG_Y122_S119P] | 4.88 |
| PNQRRYVFFFS [PTEN_Y174_S170N_YF] | 0.77 |
| GHEFIYVDRMQ [PDGFRB_Y581_P584R_YF] | 1.11 |

target: FGFR3 (UniProt P22607); assay: as above
Sequence (P22607 whole entry, looked up): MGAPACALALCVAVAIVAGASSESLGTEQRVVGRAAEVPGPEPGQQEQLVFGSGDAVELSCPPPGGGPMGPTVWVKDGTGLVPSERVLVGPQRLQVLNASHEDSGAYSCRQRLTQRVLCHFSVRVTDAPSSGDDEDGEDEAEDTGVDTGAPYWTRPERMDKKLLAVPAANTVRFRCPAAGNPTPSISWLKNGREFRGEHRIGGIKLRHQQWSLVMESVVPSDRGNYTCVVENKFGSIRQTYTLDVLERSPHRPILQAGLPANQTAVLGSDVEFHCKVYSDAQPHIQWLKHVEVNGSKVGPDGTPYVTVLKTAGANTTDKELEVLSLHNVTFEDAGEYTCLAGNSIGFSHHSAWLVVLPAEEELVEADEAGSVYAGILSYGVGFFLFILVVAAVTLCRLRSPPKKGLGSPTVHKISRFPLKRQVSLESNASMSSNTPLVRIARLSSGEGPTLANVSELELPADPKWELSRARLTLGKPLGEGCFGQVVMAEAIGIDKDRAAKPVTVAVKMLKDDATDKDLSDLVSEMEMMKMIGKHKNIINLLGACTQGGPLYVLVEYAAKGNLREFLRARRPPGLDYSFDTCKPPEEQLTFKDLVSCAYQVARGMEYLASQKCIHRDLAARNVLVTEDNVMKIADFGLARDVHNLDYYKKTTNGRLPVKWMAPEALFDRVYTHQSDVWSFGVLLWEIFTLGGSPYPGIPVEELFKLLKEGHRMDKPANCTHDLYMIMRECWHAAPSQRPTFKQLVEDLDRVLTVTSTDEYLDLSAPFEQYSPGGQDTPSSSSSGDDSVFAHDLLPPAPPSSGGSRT

| Sequence | phosphorylation enrichment |
| --- | --- |
| ELANLYHHVCM [BICD2_Y538] | 1.49 |
| GVRFTYTIDGS [DCX_Y105_I104T_YF] | 0.729 |
| EQLRAYLEGTC [HLA-C_Y183] | 0.692 |
| SLMNQYVNKEF [RAB7A_Y28_K32E] | 0.568 |
| KGSEGYLAAIF [NF1_Y2503_T2507I_YF] | 0.537 |
| DLSEVYKPRRK [CCDC93_Y176] | 0.575 |
| GIYKDYYRYNF [PLA2G2D_Y85_S80G] | 9.59 |
| KDFETYQSFQN [CTNND2_Y1157_P1159S_YF] | 0.691 |
| RRNEEYCLLAS [ITK_Y198_D202A] | 0.977 |
| PVGVLYKVKVY [PTS_Y128] | 1.27 |
| KGEDFYCVTFH [FHL1_Y149_C153Y_YF] | 1.12 |
| RRIHSYRGRLW [VHL_Y112_H115R] | 0.811 |
| FGLQAYTEVKT [ALDH2_Y502_YF] | 0.783 |
| PELINYHQHFS [BTK_Y361_N365Y_YF] | 0.799 |
| LREKVYVSLEA [RXRA_Y397_A398V] | 0.737 |
| ADKSVYLMGLN [MYH7_Y386_A385V] | 0.523 |
| SLNEVYTKNKT [MSH2_Y563_E562V] | 0.444 |

| Sequence | phosphorylation enrichment |
| --- | --- |
| DGTESYHTVSS [PLK1_Y462_L463H] | 0.872 |
| PTTKTYFPHFF [HBA1_Y43_D48Y_YF] | 0.696 |
| LKALHYMVQTS [SACS_Y3367] | 0.459 |
| TIQIMYGCDVG [HLA-A_Y123] | 0.817 |
| GKSFIYAAFHA [KCNT1_Y563_T562I] | 0.805 |
| GSSSSCGQHGS [HRNR_Y517_Y517C] | 0.522 |
| RRIHSYRGQLW [VHL_Y112_H115Q] | 0.596 |
| KSVVTYSPTTG [ITGB3BP_Y32_I30V] | 0.442 |
| KILGRYFETSS [PAX2_Y72_G76S_YF] | 0.633 |
| DTDSSYCIPIA [GAB1_Y373_T377I] | 0.706 |
| CKRQFYLFKGK [RSPO4_Y112_YF] | 0.591 |
| ESDYTYSSSYE [SRPK2_Y427] | 1.06 |
| DRQASYLDKVR [KRT16_Y131_L128Q] | 0.424 |
| CGPLLYGLVHQ [PRKCG_Y122_S119P] | 0.723 |
| PNQRRYVFFFS [PTEN_Y174_S170N_YF] | 1.25 |
| GHEFIYVDRMQ [PDGFRB_Y581_P584R_YF] | 0.624 |

test system: c-Src; assay: as above

| Sequence | phosphorylation enrichment |
| --- | --- |
| ELANLYHHVCM [BICD2_Y538] | 1.47 |
| GVRFTYTIDGS [DCX_Y105_I104T_YF] | 0.435 |
| EQLRAYLEGTC [HLA-C_Y183] | 0.423 |
| SLMNQYVNKEF [RAB7A_Y28_K32E] | 0.459 |
| KGSEGYLAAIF [NF1_Y2503_T2507I_YF] | 0.421 |
| DLSEVYKPRRK [CCDC93_Y176] | 0.573 |
| GIYKDYYRYNF [PLA2G2D_Y85_S80G] | 4.78 |
| KDFETYQSFQN [CTNND2_Y1157_P1159S_YF] | 4.94 |
| RRNEEYCLLAS [ITK_Y198_D202A] | 0.57 |
| PVGVLYKVKVY [PTS_Y128] | 0.451 |
| KGEDFYCVTFH [FHL1_Y149_C153Y_YF] | 1.47 |
| RRIHSYRGRLW [VHL_Y112_H115R] | 0.7 |
| FGLQAYTEVKT [ALDH2_Y502_YF] | 0.414 |
| PELINYHQHFS [BTK_Y361_N365Y_YF] | 0.38 |
| LREKVYVSLEA [RXRA_Y397_A398V] | 1.36 |
| ADKSVYLMGLN [MYH7_Y386_A385V] | 0.678 |
| SLNEVYTKNKT [MSH2_Y563_E562V] | 0.431 |

| Sequence | phosphorylation enrichment |
| --- | --- |
| DGTESYHTVSS [PLK1_Y462_L463H] | 0.423 |
| PTTKTYFPHFF [HBA1_Y43_D48Y_YF] | 0.471 |
| LKALHYMVQTS [SACS_Y3367] | 0.398 |
| TIQIMYGCDVG [HLA-A_Y123] | 0.633 |
| GKSFIYAAFHA [KCNT1_Y563_T562I] | 3.84 |
| GSSSSCGQHGS [HRNR_Y517_Y517C] | 0.283 |
| RRIHSYRGQLW [VHL_Y112_H115Q] | 0.776 |
| KSVVTYSPTTG [ITGB3BP_Y32_I30V] | 0.431 |
| KILGRYFETSS [PAX2_Y72_G76S_YF] | 0.341 |
| DTDSSYCIPIA [GAB1_Y373_T377I] | 0.435 |
| CKRQFYLFKGK [RSPO4_Y112_YF] | 0.377 |
| ESDYTYSSSYE [SRPK2_Y427] | 1.43 |
| DRQASYLDKVR [KRT16_Y131_L128Q] | 0.385 |
| CGPLLYGLVHQ [PRKCG_Y122_S119P] | 4.08 |
| PNQRRYVFFFS [PTEN_Y174_S170N_YF] | 0.677 |
| GHEFIYVDRMQ [PDGFRB_Y581_P584R_YF] | 2.02 |
